Columns and labels:
Test in all cases: mitochondrial relocalisation (mito-tag) assay, fluorescence microscopy; ANRP fused to Tom70-HA and mCherry held at the outer mitochondrial membrane in Drosophila embryos (cells at stage 12); ectopic recruitment of endogenous CRISPR Arp3:GFP scored by colocalisation, Pearson coefficient and GFP:mCherry intensity ratio; the paper says the approach does not differentiate between direct and indirect interactions
[1] = biological target: UAS:mito:mCherry:Cortactin (D. melanogaster)
Chain of UAS:mito:mCherry:Cortactin (D. melanogaster) (main, as listed by the source): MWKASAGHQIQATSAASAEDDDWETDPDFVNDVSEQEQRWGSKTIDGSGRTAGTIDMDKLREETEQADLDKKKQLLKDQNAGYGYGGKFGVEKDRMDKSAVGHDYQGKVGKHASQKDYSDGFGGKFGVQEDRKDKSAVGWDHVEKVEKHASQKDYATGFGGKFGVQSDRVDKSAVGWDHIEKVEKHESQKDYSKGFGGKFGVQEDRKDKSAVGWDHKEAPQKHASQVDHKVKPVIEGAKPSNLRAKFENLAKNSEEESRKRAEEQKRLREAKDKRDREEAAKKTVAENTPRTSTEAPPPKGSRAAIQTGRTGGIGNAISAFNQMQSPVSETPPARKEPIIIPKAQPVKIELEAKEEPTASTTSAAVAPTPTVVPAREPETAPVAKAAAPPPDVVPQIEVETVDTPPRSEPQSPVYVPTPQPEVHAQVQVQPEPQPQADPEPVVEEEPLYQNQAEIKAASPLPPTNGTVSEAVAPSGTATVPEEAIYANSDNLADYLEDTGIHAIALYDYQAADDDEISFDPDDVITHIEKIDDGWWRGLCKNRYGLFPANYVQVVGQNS

[2] = biological target: UAS:mito:mCherry:Scar (D. melanogaster)
[3] = biological target: UAS:mito:mCherry:DPod1 (D. melanogaster)
[4] = biological target: UAS:mito:mCherry:Coronin (D. melanogaster)

Chain of CRISPR Arp3:GFP (P32392 whole entry): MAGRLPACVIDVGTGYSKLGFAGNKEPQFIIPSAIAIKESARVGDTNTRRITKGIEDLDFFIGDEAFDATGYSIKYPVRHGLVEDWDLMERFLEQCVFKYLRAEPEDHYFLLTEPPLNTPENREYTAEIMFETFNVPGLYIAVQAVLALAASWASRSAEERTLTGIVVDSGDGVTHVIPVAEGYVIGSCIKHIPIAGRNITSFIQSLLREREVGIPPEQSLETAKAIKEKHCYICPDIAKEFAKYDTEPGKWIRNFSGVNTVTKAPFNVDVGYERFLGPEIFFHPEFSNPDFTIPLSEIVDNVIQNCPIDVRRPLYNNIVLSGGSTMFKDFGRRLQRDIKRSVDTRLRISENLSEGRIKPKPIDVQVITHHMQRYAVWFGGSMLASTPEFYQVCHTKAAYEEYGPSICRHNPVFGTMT

## CRISPR Arp3:GFP (from UniProt P32392 1-418) (natural protein)
[1]
  Pearson correlation coefficient of colocalisation: 0.492
[2]
  Pearson correlation coefficient of colocalisation: 0.313
  percent colocalization: 50%
[3]
  Pearson correlation coefficient of colocalisation: 0.625
[4]
  Pearson correlation coefficient of colocalisation: 0.234

From publication PMC8149123
